Experimental data taken from patent US20230192897A1 (NUMAB THERAPEUTICS, published 2023).

Experiments:
[1] = target: T1, Fc tagged human PDL1 (human, UniProt Q9NZQ7 19-239); test: SPR
T1 construct: Bought (Sino Biological, cat. 10084-H02H); captured on the SPR chip; also called PDL1-Fc chimeric protein
Experimental: (§1) Affinity to PDL1 of the different species was determined by SPR measurements using a Biacore T200 device (GE Healthcare). An antibody specific for the Fc region of human IgGs was immobilized on a sensor chip (CM5 sensor chip, GE Healthcare) by amine-coupling. For all formats, with the exception of the Fc containing Morrison formats, PDL1-Fc chimeric protein from different species were captured by the immobilized antibody.
(§2) Three-fold serial dilutions of the molecules specific for PDL1 (0.12-90 nM) were injected into the flow cells for three minutes and dissociation was monitored for 10 minutes. After each injection cycle, surfaces were regenerated with one injection of a 3 M MgCl₂ solution. The apparent dissociation (kd) and association (kₐ) rate constants and the apparent dissociation equilibrium constant (KD) were calculated using one-to-one Langmuir binding model. Affinity to CD137 of the different species was determined using the identical setup as for PDL1 with the exception that CD137-Fc chimeric protein from different species were captured by the immobilized antibody.

[2] = target: T2, Fc tagged human CD137 (human, UniProt Q07011 24-186); test: SPR
T2 construct: also called CD137-Fc chimeric protein
Experimental: as §1, §2

[3] = target: T3, CD137 on Jurkat NFkB reporter cells (human, UniProt Q07011 24-255); test: cell-based or functional assay
[4] = target: T4, biotinylated human PDL1 (human, UniProt Q9NZQ7 19-238, limits assumed, biotinylated); test: competition ELISA B7.1/PDL1
T4 construct: also called biotinylated PDL1
Experimental: Plates were blocked for 1 hour at room temperature by adding 300 μl of PBS with 1% BSA and 0.2% tween (dilution buffer) to each well. […] The mixtures were pre-incubated for 1 hour at room temperature under gentle agitation on a rotating mixer (21 rpm) and added to the microplates after 3 wash cycles with 450 μl wash buffer per well. Plates were incubated for 1.5 hours at room temperature under gentle agitation, then 10 ng/ml streptavidin-polyHRP40 was added to each microplate well after three washes with 450 μl of wash buffer per well. After 1 h incubation at RT, plates were washed three times with 450 μl wash buffer and TMB substrate solution was added. The enzymatic reaction was stopped after 6 minutes by addition of 1 M HCl and absorbance was measured at 450 nm using 690 nm as a reference wavelength. For calculation of IC₅₀ values, a four-parameter logistic (4PL) curve fit was performed in Graph Pad Prism using reference subtracted values.

[5] = target: T3, CD137 on Jurkat NFkB reporter cells; test: cell-based or functional assay; remark: listed apart in the source
[6] = target: human PDL1 on cells (human, UniProt Q9NZQ7 19-290); test: cell-based or functional assay
[7] = target: T4, biotinylated human PDL1; test: competition ELISA PD-1/PDL1
Experimental: Plates were blocked for 1 hour at room temperature by adding 300 μl of PBS with i%BSA and 0.2% tween (dilution buffer) to each well. Inhibitors were serially diluted in 3-fold steps to final concentrations ranging from 300 to 0.005 ng/ml in dilution buffer containing 1 ng/ml biotinylated human PDL1. The mixtures were pre-incubated for 1 hour at room temperature under gentle agitation on a rotating mixer (21 rpm) and added to the microplates after 3 wash cycles with 450 μl wash buffer per well. Plates were incubated for 1.5 hours at room temperature under gentle agitation, then 10 ng/ml streptavidin-polyHRP40 was added to each microplate well after three washes with 450 μl of wash buffer per well. After 1 h incubation at RT, plates were washed three times with 450 μl wash buffer and TMB substrate solution was added. The enzymatic reaction was stopped after 6 minutes by addition of 1 M HCl and absorbance was measured at 450 nm using 690 nm as a reference wavelength. For calculation of IC₅₀ values, a four-parameter logistic (4PL) curve fit was performed in Graph Pad Prism using reference subtracted values.

| Binder | Kd [2] | koff [2] | kon [2] | Area under the curve (calculated using PRO885 normalized data), first line (6 h by the order of the upper part) [3] | Area under the curve (calculated using PRO885 normalized data), second line (24 h by the order of the upper part) [3] | EC50 [ng/ml], NF-kB reporter, HCC827 + IFNg, +HSA, 6 h [3] | IC10/EC90 ratio, first line (6 h by the order of the upper part) [3] | IC10/EC90 ratio, second line (24 h by the order of the upper part) [3] | Maximum NF-kB activation (rel. to PRO1186) [%], first line (6 h by the order of the upper part) [3] | Maximum NF-kB activation (rel. to PRO1186) [%], second line (24 h by the order of the upper part) [3] | rel. Area under the curve (AUCsample/AUCPRO1186), first line (6 h by the order of the upper part) [3] | rel. Area under the curve (AUCsample/AUCPRO1186), second line (24 h by the order of the upper part) [3] | rel. EC50 (EC50, PRO1186/EC50, sample), NF-kB reporter, 6 h [3] | rel. EC50 (EC50, PRO1186/EC50, sample), NF-kB reporter, 24 h [3] | rel. IC10/EC90 (ratio of sample/ratio of PRO1186), first line (6 h by the order of the upper part) [3] | rel. IC10/EC90 (ratio of sample/ratio of PRO1186), second line (24 h by the order of the upper part) [3] | IC50 [4] | rel. IC50 (IC50 avelumab/IC50 test) [4] | IC50 (ng/ml) (EC50 in Table 16C), NFkB reporter, HCC827 + IFNg, 24 h, +HSA [5] | rel. IC50 (PRO1186/test), 24 h [5] | also measured |
| --- | --- | --- | --- | --- | --- | --- | --- | --- | --- | --- | --- | --- | --- | --- | --- | --- | --- | --- | --- | --- | --- |
| PRO1476 (other, trispecific scDb-scFv; also called 33-03-G02 sc03 scDb-i/38-02-A04 sc13 scDb-o/19-01-H04 sc03 scFv) DIQMTQSPSSLSASVGDRVTITCQASQSINNVLAWYQQKPGKAPKLLIYRASTLASGVPSRFSGSGSGTDFTLTISSLQPEDFATYYCQSSYGNYGDFGCGTKVTVLGGGGGSQSQLQESGPGLVKPSETLSLTCKASGFSFSSGYDMCWVRQPPGKGLEWIACVVAGSVDITYYASWAKGRVTISKDSSKNQVSLKLSSVTAADTAVYFCARKDAYSDAFNLWGQGTLVTVSSGGGGSGGGGSGGGGSGGGGSFQLTQSPSSLSASVGDRVTITCQASQSINDYLAWYQQKPGKSPKLLIYKASTLASGVPSRFSGSGSGTDFTLTISSLQPEDFATYYCQQGYIITDIDNVFGTGTKVTVLGGGGGSEVQLVESGGGLVQPGGSLRLSCAASGFSFSNSYWICWVRQAPGKCLEWIGCTFVGSSDSTYYANWAKGRFTISRDNSKNTVYLQMNSLRAEDTAVYYCARHPSDAVYGYANNLWGQGTLVTVSSGGGGSGGGGSIQMTQSPSSLSASVGDRVTITCQSSESVYSNNQLSWYQQKPGQPPKLLIYDASDLASGVPSRFSGSGSGTDFTLTISSLQPEDFATYYCAGGFSSSSDTAFGGGTKLTVLGGGGGSGGGGSGGGGSGGGGSEVQLVESGGGLVQPGGSLRLSCAASGFSLSSNAMGWVRQAPGKGLEYIGIISVGGFTYYASWAKGRFTISRDNSKNTVYLQMNSLRAEDTATYFCARDRHGGDSSGAFYLWGQGTLVTVSS | 1.1 nM | 0.00037 s⁻¹ | 350000 M⁻¹ s⁻¹ | 93.5 | 135 | 5.97 ng/mL | 34.2 | 35.7 | 36.4% | 76.1% | 0.39 fold | 0.59 fold | 2.02 fold | 1.83 fold | 2.66 fold | 1.63 fold | 9.49 ng/mL | 1.1 fold | 3.9 ng/mL | 1.83 fold | Kd [1]: 0.009 nM; koff [1]: 3.1e-05 s⁻¹; IC50 (ng/ml), NF-AT potency assay, +HSA [6]: 53.5 ng/mL; rel. IC50 (avelumab/test), +HSA [6]: 0.66 fold; IC50 [7]: 2.84 ng/mL; rel. IC50 (IC50 avelumab/IC50 test) [7]: 0.8 fold |
| PRO1432 (other, trispecific scDb-scFv; also called 33-03-G02 sc18 scDb-i/38-02-A04 sc13 scDb-o/19-01-H04 sc03 scFv) DIQMTQSPSSLSASVGDRVTITCQASQSINNVLAWYQQKPGKAPKLLIYRASTLASGVPSRFSGSGSGTDFTLTISSLQPEDFATYYCQSSYGNYGDFGCGTKVTVLGGGGGSQVQLQESGPGLVKPSETLSLTCKASGFSFSSGYDMCWVRQPPGKGLEWIACVVAGSVDITYYASWAKGRVTISKDSSKNQVSLKLSSVTAADTAVYYCARKDAYSDAFNLWGQGTLVTVSSGGGGSGGGGSGGGGSGGGGSIQMTQSPSSLSASVGDRVTITCQASQSINDYLAWYQQKPGKAPKLLIYKASTLASGVPSRFSGSGSGTDFTLTISSLQPEDFATYYCQQGYIITDIDNVFGTGTKVTVLGGGGGSEVQLVESGGGLVQPGGSLRLSCAASGFSFSNSYWICWVRQAPGKCLEWIGCTFVGSSDSTYYANWAKGRFTISRDNSKNTVYLQMNSLRAEDTAVYYCARHPSDAVYGYANNLWGQGTLVTVSSGGGGSGGGGSIQMTQSPSSLSASVGDRVTITCQSSESVYSNNQLSWYQQKPGQPPKLLIYDASDLASGVPSRFSGSGSGTDFTLTISSLQPEDFATYYCAGGFSSSSDTAFGGGTKLTVLGGGGGSGGGGSGGGGSGGGGSEVQLVESGGGLVQPGGSLRLSCAASGFSLSSNAMGWVRQAPGKGLEYIGIISVGGFTYYASWAKGRFTISRDNSKNTVYLQMNSLRAEDTATYFCARDRHGGDSSGAFYLWGQGTLVTVSS | 0.75 nM | 0.00045 s⁻¹ | 600000 M⁻¹ s⁻¹ | 111 | 150 | 19.4 ng/mL | 26.8 | 3.57 | 63.4% | 83.8% | 0.59 fold | 0.81 fold | 0.67 fold | 0.75 fold | 0.36 fold | 0.16 fold | 2.83 ng/mL | 0.99 fold | 21.9 ng/mL | 0.75 fold | koff [1]: 4.4e-05 s⁻¹; kon [1]: 4.2e+06 M⁻¹ s⁻¹; IC50 (ng/ml), NF-AT potency assay, +HSA [6]: 18.5 ng/mL; rel. IC50 (avelumab/test), +HSA [6]: 1.98 fold; IC50 [7]: 3.26 ng/mL; rel. IC50 (IC50 avelumab/IC50 test) [7]: 0.43 fold |
| PRO1481 (other, trispecific scDb-scFv; also called 38-27-A11 sc03 scDb-i/37-20-B03 sc09.1 scDb-o/19-01-H04 sc03 scFv) DIQMTQSPASLSASVGDRVTITCQASQSIGTYLAWYQQKPGKPPKLLIYRAFILASGVPSRFSGSGSGTDFTLTISSLQPEDFATYYCQSNFYSDSTTIGPNAFGTGTKVTVLGGGGGSESQLVESGGGLVQPGGSLRLSCAASGFSFSANYYPCWVRQAPGKGLEWIGCIYGGSSDITYDANWTKGRFTISRDNSKNTVYLQMNSLRAEDTAVYFCARSAWYSGWGGDLWGPGTLVTVSSGGGGSGGGGSGGGGSGGGGSFQLTQSPSSLSASVGDRVTITCQASQSISNRLAWYQQKPGKPPKLLIYSASTLASGVPSRFSGSGSGTDFTLTISSLQPEDFATYYCQSTYYGNDGNAFGTGTKVTVLGGGGGSEVQLVESGGGLVQPGGSLRLSCAASGFSFNSDYWIYWVRQAPGKGLEWIASIYGGSSGNTQYASWAQGRFTISRDNSKNTVYLQMNSLRAEDTAVYFCARGYVDYGGATDLWGQGTLVTVSSGGGGSGGGGSIQMTQSPSSLSASVGDRVTITCQSSESVYSNNQLSWYQQKPGQPPKLLIYDASDLASGVPSRFSGSGSGTDFTLTISSLQPEDFATYYCAGGFSSSSDTAFGGGTKLTVLGGGGGSGGGGSGGGGSGGGGSEVQLVESGGGLVQPGGSLRLSCAASGFSLSSNAMGWVRQAPGKGLEYIGIISVGGFTYYASWAKGRFTISRDNSKNTVYLQMNSLRAEDTATYFCARDRHGGDSSGAFYLWGQGTLVTVSS | 0.33 nM | 0.0002 s⁻¹ | 630000 M⁻¹ s⁻¹ | 292 | 254 | 7.22 ng/mL | 23.7 | 41 | 147% | 117% | 1.37 fold | 1 fold | 1.04 fold | 0.58 fold | 1.71 fold | 5.72 fold | 10.1 ng/mL | 1.45 fold | 5.51 ng/mL | 0.58 fold | Kd [1]: 0.0092 nM; kon [1]: 4.7e+06 M⁻¹ s⁻¹; IC50 (ng/ml), NF-AT potency assay, +HSA [6]: 40.6 ng/mL; rel. IC50 (avelumab/test), +HSA [6]: 0.92 fold; IC50 [7]: 2.69 ng/mL; rel. IC50 (IC50 avelumab/IC50 test) [7]: 0.84 fold |
